These results are taken from US20240059797A1 (GRITSTONE BIO, published 2024).

Bounds are passed on as bounds.

In assay [1] the target is T1, HLA-B*35:01_… (HLA-PEPTIDE target G5), recombinant biotinylated complex (human, enzymatically biotinylated (BirA)).
T1 construct: also called G5-pHLA
Nature of the assay: scFv PPE ELISA. A general note: An ELISA detects its analyte on a solid surface through an enzyme-linked reagent.

Assay [2] has as its target HLA-A*02:01_… (HLA-PEPTIDE target G7), recombinant biotinylated complex (human, enzymatically biotinylated (BirA)). Briefly: BLI, pHLA on sensor, Fab titrated, 1:1 model. For orientation: BLI is a label-free optical method that tracks binding on a fibre tip over time.
The target in assay [3] is HLA-A*02:01_… (HLA-PEPTIDE target G8), recombinant complex (human, enzymatically biotinylated (BirA) for screening and functional assays). Briefly: BLI, pHLA on sensor, Fab titrated, 1:1 model.
Experimental: Binding affinity was assessed by bio-layer interferometry (BLI) using an Octet Qke (ForteBio). Briefly, biotinylated pHLA complexes in kinetics buffer were loaded onto streptavidin sensors for 300 seconds, at concentrations which gave the optimal nm shift response (approximately 0.6 nm) for each Fab at the highest concentration used. The ligand-loaded tips were subsequently equilibrated in the kinetics buffer for 120 seconds. The ligand-loaded biosensors were then dipped for 200 seconds in the Fab solution titrated into 2-fold dilutions. […] The dissociation step in the kinetics buffer was measured for 200 seconds. Data were analyzed using the ForteBio data analysis software using a 1:1 binding model.
Assay [4] deals with HLA-A*01:01_… (HLA-PEPTIDE target G10), recombinant biotinylated complex (human, enzymatically biotinylated (BirA)). Nature of the assay: scFv PPE ELISA.

B1: G5(3G01) scFv (scFv, V domains shown)
VH: QVQLVQSGAEVKKPGASVKVSCKASGGTFSGYLVSWVRQAPGQGLEWMGWINPNSGGTNTAQKFQGRVTMTRDTSTSTVYMELSSLRSEDTAVYYCAREGYGMDVWGQGTTVTVSS
VL: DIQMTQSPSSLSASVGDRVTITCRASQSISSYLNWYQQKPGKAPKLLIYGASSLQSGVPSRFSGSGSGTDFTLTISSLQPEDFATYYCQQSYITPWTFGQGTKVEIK
Regarding B1, the “fold selective binding to target pHLA over minipool of negative control pHLAs” value (“fold selective binding to target pHLA” below) in assay [1] is no less than 3 fold.

B2: G5(4B02) scFv (scFv, V domains shown)
VH: QVQLVQSGAEVKKPGASVKVSCKASGYTFTGYYMHWVRQAPGQGLEWMGWMNPNIGNTGYAQKFQGRVTMTRDTSTSTVYMELSSLRSEDTAVYYCARGIADSGSYYGNGRDYYYGMDVWGQGTTVTVSS
VL: DIVMTQSPDSLAVSLGERATINCKTSQSVLYRPNNENYLAWYQQKPGQPPKLLIYQASIREPGVPDRFSGSGSGTDFTLTISSLQAEDVAVYYCQQYYTTPYTFGQGTKLEIK
On to B2, for which the “fold selective binding to target pHLA” value in assay [1] is no less than 3 fold.

B3: G7(1A03) Fab (Fab, V domains shown)
VH: QVQLVQSGAEVKKPGASVKVSCKASGYTFTSQYMHWVRQAPGQGLEWMGWISPNNGDTNYAQKFQGRVTMTRDTSTSTVYMELSSLRSEDTAVYYCARELGYYYGMDVWGQGTTVTVSS
VL: DIQMTQSPSSLSASVGDRVTITCRASQSISTWLAWYQQKPGKAPKLLIYYASSLQSGVPSRFSGSGSGTDFTLTISSLQPEDFATYYCQQSYSFPYTFGQGTKVEIK
notes: Fab
B3: in assay [2], the Kd was determined as 532 nM, the dissociation rate constant (koff) was found to be 0.0994 s⁻¹ and the kon was 197000 M⁻¹ s⁻¹.

B4: G8(2E04) Fab (Fab, V domains shown)
VH: QVQLVQSGAEVKKPGSSVKVSCKASGGTFSSYGVSWVRQAPGQGLEWMGWISPYSGNTDYAQKFQGRVTITADESTSTAYMELSSLRSEDTAVYYCARGLYYMDVWGKGTTVTVSS
VL: DIQMTQSPSSLSASVGDRVTITCRASQSISSWLAWYQQKPGKAPKLLIYDASNLETGVPSRFSGSGSGTDFTLTISSLQPEDFATYYCQQSYSTPLTFGGGTKLEIK
notes: Fab
Turning to B4, in assay [3], the Kd is 286 nM, the dissociation rate constant (koff) worked out at 0.0789 s⁻¹ and the kon is 545000 M⁻¹ s⁻¹.

B5: G5(1C12) scFv (scFv, V domains shown)
VH: QVQLVQSGAEVKKPGSSVKVSCKASGGTFSNFGVSWLRQAPGQGLEWMGGIIPILGTANYAQKFQGRVTITADESTSTAYMELSSLRSEDTAVYYCATPTNSGYYGPYYYYGMDVWGQGTTVTVSS
VL: DIQMTQSPSSLSASVGDRVTITCRASQSISSWLAWYQQKPGKAPKLLIYAASTLQSGVPSRFSGSGSGTDFTLTISSLQPEDFATYYCQQSYSIPLTFGGGTKVEIK
notes: also called G5-P1C12
B5: the “fold selective binding to target pHLA” value in assay [1] is no less than 3 fold.

B6: G5(4E04) scFv (scFv, V domains shown)
VH: QVQLVQSGAEVKKPGASVKVSCKASGGTFSSYGISWVRQAPGQGLEWMGWINPNSGVTKYAQKFQGRVTMTRDTSTSTVYMELSSLRSEDTAVYYCARGDYYFDYWGQGTLVTVSS
VL: DIQMTQSPSSLSASVGDRVTITCRASQSISRFLNWYQQKPGKAPKLLIYGASRPQSGVPSRFSGSGSGTDFTLTISSLQPEDFATYYCQQSYSTPLTFGQGTKVEIK
In the case of B6, the “fold selective binding to target pHLA” value in assay [1] was no less than 3 fold.

B7: G5(1E05) scFv (scFv, V domains shown)
VH: QVQLVQSGAEVKKPGASVKVSCKASGYTFTSYNMHWVRQAPGQGLEWMGWINPNSGGTNYAQKFQGRVTMTRDTSTSTVYMELSSLRSEDTAVYYCARDVMDVWGQGTTVTVSS
VL: DIQMTQSPSSLSASVGDRVTITCRASQGISNYLNWYQQKPGKAPKLLIYYASSLQSGVPSRFSGSGSGTDFTLTISSLQPEDFATYYCQQTYMMPYTFGQGTKVEIK
For B7, in assay [1], the “fold selective binding to target pHLA” value was no less than 3 fold.

B8: G8(2C10) Fab (Fab, V domains shown)
VH: QVQLVQSGAEVKKPGASVKVSCKASGYTFTSYYMHWVRQAPGQGLEWMGWINPYSGGTNYAQKFQGRVTMTRDTSTSTVYMELSSLRSEDTAVYYCAKGGIYYGSGSYPSWGQGTLVTVSS
VL: DIQMTQSPSSLSASVGDRVTITCRASQDVSTWLAWYQQKPGKAPKLLIYAASSLQSGVPSRFSGSGSGTDFTLTISSLQPEDFATYYCQQSHSTPQTFGQGTKVEIK
notes: Fab
In the case of B8, in assay [3], the Kd was 17.7 nM, the koff worked out at 0.0013 s⁻¹ and the kon amounted to 75000 M⁻¹ s⁻¹.

B9: G5(1B12) scFv (scFv, V domains shown)
VH: EVQLLESGGGLVQPGGSLRLSCAASGFTFSNSDMNWVRQAPGKGLEWVASISSSGGYINYADSVKGRFTISRDNSKNTLYLQMNSLRAEDTAVYYCAKVNWNDGPYFDYWGQGTLVTVSS
VL: DIQMTQSPSSLSASVGDRVTITCRASQSISSWLAWYQQKPGKAPKLLIYAASSLQSGVPSRFSGSGSGTDFTLTISSLQPEDFATYYCQQANSFPLTFGGGTKVEIK
B9: the “fold selective binding to target pHLA” value in assay [1] was no less than 3 fold.

B10: G5(2B10) scFv (scFv, V domains shown)
VH: QVQLVQSGAEVKKPGASVKVSCKASGGTFSSYAISWVRQAPGQGLEWMGWMNPDSGSTGYAQRFQGRVTMTRDTSTSTVYMELSSLRSEDTAVYYCARGHSSGWYYYYGMDVWGQGTTVTVSS
VL: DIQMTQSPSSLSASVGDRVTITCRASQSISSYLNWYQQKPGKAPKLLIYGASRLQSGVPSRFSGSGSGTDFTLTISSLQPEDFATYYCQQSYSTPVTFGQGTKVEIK
For B10, the “fold selective binding to target pHLA” value in assay [1] is no less than 3 fold.

B11: G5(3G05) scFv (scFv, V domains shown)
VH: QVQLVQSGAEVKKPGASVKVSCKASGYTFTNYYMHWVRQAPGQGLEWMGIINPSGGSTSYAQKFQGRVTMTRDTSTSTVYMELSSLRSEDTAVYYCARSWFGGFNYHYYGMDVWGQGTTVTVSS
VL: DIQMTQSPSSLSASVGDRVTITCQASEDISNHLNWYQQKPGKAPKLLIYDALSLQSGVPSRFSGSGSGTDFTLTISSLQPEDFATYYCQQANSFPFTFGPGTKVDIK
For B11, the “fold selective binding to target pHLA” value in assay [1] was no less than 3 fold.

B12: G7(2E09) Fab (Fab, V domains shown)
VH: QVQLVQSGAEVKKPGSSVKVSCKASRYTFTSYDINWVRQAPGQGLEWMGRIIPMLNIANYAPKFQGRVTITADESTSTAYMELSSLRSEDTAVYYCARALIFGVPLLPYGMDVWGQGTTVTVSS
VL: not shown
notes: Fab
As for B12, in assay [2], the Kd was determined as 11.8 nM, the dissociation rate constant (koff) was 0.00212 s⁻¹ and the association rate constant (kon) turned out to be 185000 M⁻¹ s⁻¹.

B13: G5(1D06) scFv (scFv, V domains shown)
VH: QVQLVQSGAEVKKPGASVKVSCKASGYTFTSYDINWVRQAPGQGLEWMGWINPNSGDTKYSQKFQGRVTMTRDTSTSTVYMELSSLRSEDTAVYYCARDGTRYYGMDVWGQGTTVTVSS
VL: not shown
Consider B13, for which the “fold selective binding to target pHLA” value in assay [1] is no less than 3 fold.

B14: G7(2C02) Fab (Fab, V domains shown)
VH: QVQLVQSGAEVKKPGASMKVSCKASGYTFTTDGISWVRQAPGQGLEWMGRIYPHSGYTEYAKKFKGRVTMTRDTSTSTVYMELSSLRSEDTAVYYCARQDGGAFAFDIWGQGTMVTVSS
VL: DIQMTQSPSSLSASVGDRVTITCQASQDIFKYLNWYQQKPGKAPKLLIYAASTLQSGVPSRFSGSGSGTDFTLTISSLQPEDFATYYCQQSYSTPPTFGQGTRLEIK
notes: Fab
As for B14, in assay [2], the equilibrium dissociation constant (Kd) came to 531 nM, the koff came out at 0.0543 s⁻¹ and the kon is 104000 M⁻¹ s⁻¹.

B15: G8(1C11) Fab (Fab, V domains shown)
VH: QVQLVQSGAEVKKPGASVKVSCKASGGTLSSYPINWVRQAPGQGLEWMGWISTYSGHADYAQKLQGRVTMTRDTSTSTVYMELSSLRSEDTAVYYCARSYDYGDYLNFDYWGQGTLVTVSS
VL: DIQMTQSPSSLSASVGDRVTITCQASQDISNYLNWYQQKPGKAPKLLIYAASSLQSGVPSRFSGSGSGTDFTLTISSLQPEDFATYYCQQSYSIPPTFGGGTKVDIK
notes: Fab; also called G8-P1C11
For the molecule B15, in assay [3], the dissociation constant Kd is 178 nM, the koff worked out at 0.0338 s⁻¹ and the kon stood at 190000 M⁻¹ s⁻¹.

B16: G5(3G08) scFv (scFv, V domains shown)
VH: QVQLVQSGAEVKKPGASVKVSCKASGYIFRNYPMHWVRQAPGQGLEWMGWINPDSGGTKYAQKFQGRVTMTRDTSTSTVYMELSSLRSEDTAVYYCARDNGVGVDYWGQGTLVTVSS
VL: DIQMTQSPSSLSASVGDRVTITCRASQGISNYLAWYQQKPGKAPKLLIYAASSLQSGVPSRFSGSGSGTDFTLTISSLQPEDFATYYCQQSYITPYTFGQGTKLEIK
As to B16, in assay [1], the “fold selective binding to target pHLA” value is no less than 3 fold.

B17: G5(4B01) scFv (scFv, V domains shown)
VH: QVQLVQSGAEVKKPGSSVKVSCKASGGTFSSYAISWVRQAPGQGLEWMGGIIPIVGTANYAQKFQGRVTITADESTSTAYMELSSLRSEDTAVYYCARGGSYYYYGMDVWGQGTTVTVSS
VL: not shown
Consider B17, for which the “fold selective binding to target pHLA” value in assay [1] was no less than 3 fold.

B18: G10(5C08) scFv (scFv, V domains shown)
VH: QVQLVQSGAEVKKPGASVKVSCKASGYNFTGYYMHWVRQAPGQGLEWMGIIAPSDGSTNYAQKFQGRVTMTRDTSTSTVYMELSSLRSEDTAVYYCARETGDDAFDIWGQGTMVTVSS
VL: not shown
Regarding B18, the “fold selective binding to target pHLA” value in assay [4] was no less than 3 fold.

B19: G5(1H11) scFv (scFv, V domains shown)
VH: EVQLLESGGGLVKPGGSLRLSCAASGFTFSDYYMSWVRQAPGKGLEWVSYISSSSSYTNYADSVKGRFTISRDDSKNTLYLQMNSLKTEDTAVYYCARDVVANFDYWGQGTLVTVSS
VL: EIVMTQSPATLSVSPGERATLSCRASQSVSSNLAWYQQKPGQAPRLLIYAASARASGIPARFSGSGSGTEFTLTISSLQSEDFAVYYCQQYGSWPRTFGQGTKVEIK
In the case of B19, the “fold selective binding to target pHLA” value in assay [1] is no less than 3 fold.

A word on the Kd: it is a measure of binding affinity in units of concentration. A word on the koff: it is a measure of how fast the partners let go of each other. The term kon denotes the second-order rate constant of association.
